Experimental findings from patent publication US20170009224A1 are described below.

The target of this assay is lambda repressor cI comprising a TEV protease cleavage site (ENLYFQ(G/S)) within the interdomain linker (UniProt P03034). The assay is described as follows: cell-based or functional assay.

Sequence of TEV protease (wild type) (P04517 2038-2279): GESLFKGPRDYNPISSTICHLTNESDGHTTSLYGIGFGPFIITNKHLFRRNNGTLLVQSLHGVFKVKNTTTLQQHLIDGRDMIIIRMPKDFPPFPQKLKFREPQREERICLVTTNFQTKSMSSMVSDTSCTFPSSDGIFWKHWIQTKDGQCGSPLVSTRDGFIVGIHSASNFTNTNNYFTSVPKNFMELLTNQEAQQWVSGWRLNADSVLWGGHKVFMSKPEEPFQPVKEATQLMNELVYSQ

In the case of “TEV protease (wild type) (from UniProt P04517 2038-2279) (enzyme)”, the gene expression from the pR promoter driving pIII and luciferase was more than 100 fold.
